Laboratory results from the supplement of paper PMC9112550, “Optimization of the antimicrobial peptide Bac7 by deep mutational scanning” (BMC Biology, 2022).

tested on: Escherichia coli TOP10; assay: shrunken log2 fold change of peptide-encoding DNA abundance (4.5 h post-induction vs induction); higher = less antimicrobial activity (less host growth inhibition); conditions: time post-induction: 4.5 h; library: site-saturation at positions 5, 18, 19, 20
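Note: peptides expressed intracellularly from a pBAD plasmid library in pooled LB shake-flask culture, induced with 0.3% L-arabinose, DNA abundance read by NGS, three biological replicates, DESeq2 with apeglm shrinkage.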

Sequence | shrunken log2 fold change
RRIRMRPPRLPRPRPRPRNLPRP | 0.0196
RRIRNRPPRLPRPRPRPDYFPRP | -0.209
RRIRCRPPRLPRPRPRPNWNPRP | -0.514
RRIRYRPPRLPRPRPRPMAKPRP | -0.0343
RRIRIRPPRLPRPRPRPCGGPRP | 0.188
RRIRNRPPRLPRPRPRPELVPRP | 0.391
RRIRIRPPRLPRPRPRPMLWPRP | 0.0197
RRIRDRPPRLPRPRPRPDYHPRP | -0.0139
RRIRSRPPRLPRPRPRPIWNPRP | -0.316
RRIRCRPPRLPRPRPRPKMPPRP | 0.0277
RRIRKRPPRLPRPRPRPDMHPRP | 0.051
RRIRERPPRLPRPRPRPVIEPRP | -0.201
RRIRTRPPRLPRPRPRPMPNPRP | -0.17
RRIRQRPPRLPRPRPRPILGPRP | 0.0906
RRIRCRPPRLPRPRPRPLDMPRP | -0.549
RRIRQRPPRLPRPRPRPEWIPRP | -0.00133
RRIRERPPRLPRPRPRPKYPPRP | -0.00672
RRIRQRPPRLPRPRPRPVCSPRP | -0.21
RRIRCRPPRLPRPRPRPAQWPRP | 0.696
RRIRHRPPRLPRPRPRPCQFPRP | -0.0209
RRIRCRPPRLPRPRPRPLCDPRP | 0.54
RRIRHRPPRLPRPRPRPLKKPRP | -0.157
RRIRKRPPRLPRPRPRPVWAPRP | 0.316
RRIRNRPPRLPRPRPRPYDWPRP | 0.0127
RRIRARPPRLPRPRPRPSYLPRP | -0.716

Sequence | shrunken log2 fold change
RRIRSRPPRLPRPRPRPSEQPRP | -0.0884
RRIRGRPPRLPRPRPRPNNHPRP | -0.15
RRIRPRPPRLPRPRPRPGDMPRP | 0.00271
RRIRWRPPRLPRPRPRPHESPRP | -0.262
RRIRYRPPRLPRPRPRPFCRPRP | -0.228
RRIRHRPPRLPRPRPRPMRVPRP | -0.0146
RRIRWRPPRLPRPRPRPSTDPRP | 0.0398
RRIRFRPPRLPRPRPRPTTEPRP | 0.108
RRIRMRPPRLPRPRPRPLLVPRP | 0.199
RRIRVRPPRLPRPRPRPMSGPRP | -0.0469
RRIRARPPRLPRPRPRPHNHPRP | -0.436
RRIRVRPPRLPRPRPRPVNLPRP | -0.322
RRIRERPPRLPRPRPRPWSQPRP | -0.0521
RRIRYRPPRLPRPRPRPDRYPRP | -0.0871
RRIRWRPPRLPRPRPRPYEVPRP | -0.114
RRIRKRPPRLPRPRPRPKCLPRP | 0.118
RRIRHRPPRLPRPRPRPHCWPRP | -0.0124
RRIRQRPPRLPRPRPRPCTVPRP | -0.521
RRIRVRPPRLPRPRPRPVFKPRP | -0.196
RRIRIRPPRLPRPRPRPVPGPRP | -0.0459
RRIRFRPPRLPRPRPRPFQDPRP | 0.0171
RRIRNRPPRLPRPRPRPLNVPRP | -0.0912
RRIRQRPPRLPRPRPRPTQDPRP | 0.508
RRIRSRPPRLPRPRPRPFFCPRP | -0.11
RRIRARPPRLPRPRPRPFKDPRP | -0.0208

Sequence | shrunken log2 fold change
RRIRERPPRLPRPRPRPMIWPRP | -0.21
RRIRHRPPRLPRPRPRPEQGPRP | 0.0631
RRIRIRPPRLPRPRPRPPNFPRP | -0.108
RRIRQRPPRLPRPRPRPDAKPRP | 0.199
RRIRTRPPRLPRPRPRPKQSPRP | 0.113
RRIRTRPPRLPRPRPRPNSDPRP | -0.0311
RRIRPRPPRLPRPRPRPNSFPRP | -0.251
RRIRARPPRLPRPRPRPKWEPRP | 0.0262
RRIRWRPPRLPRPRPRPKNFPRP | -0.188
RRIRYRPPRLPRPRPRPCSSPRP | -0.941
RRIRRRPPRLPRPRPRPENQPRP | 0.368
RRIRGRPPRLPRPRPRPFIKPRP | -0.484
RRIRCRPPRLPRPRPRPWNCPRP | -0.142
RRIRMRPPRLPRPRPRPTRMPRP | 0.685
RRIRCRPPRLPRPRPRPITLPRP | -0.441
RRIRNRPPRLPRPRPRPDHDPRP | -0.224
RRIRYRPPRLPRPRPRPDGQPRP | 0.0173
RRIRKRPPRLPRPRPRPNSWPRP | 0.222
RRIRVRPPRLPRPRPRPIIKPRP | -0.351
RRIRRRPPRLPRPRPRPLEQPRP | 0.166
RRIRVRPPRLPRPRPRPDNYPRP | -0.222
RRIRCRPPRLPRPRPRPKNWPRP | 0.331
RRIRCRPPRLPRPRPRPVGHPRP | 0.0304
RRIRDRPPRLPRPRPRPQHHPRP | -0.299
RRIRSRPPRLPRPRPRPSGMPRP | -0.311

Sequence | shrunken log2 fold change
RRIRMRPPRLPRPRPRPRLHPRP | 0.721
RRIRWRPPRLPRPRPRPVWDPRP | 0.177
RRIRRRPPRLPRPRPRPSWGPRP | -0.0778
RRIRPRPPRLPRPRPRPGDPPRP | 0.364
RRIRTRPPRLPRPRPRPPILPRP | 0.112
RRIRLRPPRLPRPRPRPVKIPRP | -0.169
RRIRARPPRLPRPRPRPMKWPRP | 0.126
RRIRNRPPRLPRPRPRPDHCPRP | 0.0463
RRIRWRPPRLPRPRPRPMPCPRP | 0.113
RRIRGRPPRLPRPRPRPWACPRP | 0.216
RRIRIRPPRLPRPRPRPWNPPRP | -0.106
RRIRWRPPRLPRPRPRPIISPRP | -0.14
RRIRQRPPRLPRPRPRPPMFPRP | -0.325
RRIRCRPPRLPRPRPRPLMVPRP | -0.519
RRIRERPPRLPRPRPRPPDCPRP | 0.0792
RRIRIRPPRLPRPRPRPQCTPRP | -0.769
RRIRRRPPRLPRPRPRPYMVPRP | -0.361
RRIRYRPPRLPRPRPRPPGLPRP | 0.148
RRIRIRPPRLPRPRPRPAPYPRP | -0.406
RRIRTRPPRLPRPRPRPHLNPRP | -0.358
RRIRIRPPRLPRPRPRPMLYPRP | -0.33
RRIRGRPPRLPRPRPRPTGKPRP | 0.899
RRIRARPPRLPRPRPRPRSHPRP | 0.223
RRIRQRPPRLPRPRPRPATKPRP | 0.154
RRIRIRPPRLPRPRPRPLGIPRP | 0.132

Sequence | shrunken log2 fold change
RRIRSRPPRLPRPRPRPFLFPRP | -0.329
RRIRGRPPRLPRPRPRPYWYPRP | -0.211
RRIRNRPPRLPRPRPRPQLMPRP | -0.0332
RRIRERPPRLPRPRPRPQNNPRP | -0.911
RRIRARPPRLPRPRPRPSRYPRP | 0.0768
RRIRIRPPRLPRPRPRPKMSPRP | -0.327
RRIRFRPPRLPRPRPRPYVYPRP | -0.196
RRIRDRPPRLPRPRPRPWWHPRP | 0.133
RRIRLRPPRLPRPRPRPHFFPRP | -0.128
RRIRCRPPRLPRPRPRPRDCPRP | 0.313
RRIRMRPPRLPRPRPRPLWTPRP | 0.261
RRIRKRPPRLPRPRPRPMLIPRP | 0.0347
RRIRMRPPRLPRPRPRPRHGPRP | 0.83
RRIRLRPPRLPRPRPRPGTCPRP | 0.0703
RRIRMRPPRLPRPRPRPIDMPRP | -0.0621
RRIRTRPPRLPRPRPRPDYTPRP | -0.606
RRIRNRPPRLPRPRPRPQVVPRP | 0.0145
RRIRGRPPRLPRPRPRPLYFPRP | -0.131
RRIRMRPPRLPRPRPRPMDNPRP | 0.0672
RRIRMRPPRLPRPRPRPMDSPRP | 0.0342
RRIRVRPPRLPRPRPRPLPQPRP | 0.216
RRIRTRPPRLPRPRPRPTNAPRP | 0.209
RRIRVRPPRLPRPRPRPENDPRP | -0.0879
RRIRWRPPRLPRPRPRPIAHPRP | -0.074
RRIRGRPPRLPRPRPRPKTFPRP | 0.292

Sequence | shrunken log2 fold change
RRIRMRPPRLPRPRPRPTQHPRP | 0.717
RRIRTRPPRLPRPRPRPYICPRP | -0.143
RRIRNRPPRLPRPRPRPSLNPRP | -0.335
RRIRRRPPRLPRPRPRPQAEPRP | 0.0907
RRIRMRPPRLPRPRPRPKMAPRP | 2.29
RRIRLRPPRLPRPRPRPMASPRP | 0.0148
RRIRSRPPRLPRPRPRPTLYPRP | 0.0585
RRIRRRPPRLPRPRPRPKLNPRP | 0.101
RRIRLRPPRLPRPRPRPNMWPRP | -0.235
RRIRHRPPRLPRPRPRPAKIPRP | -0.0242
RRIRERPPRLPRPRPRPFRDPRP | 0.0112
RRIRCRPPRLPRPRPRPDLWPRP | 0.134
RRIRTRPPRLPRPRPRPMTVPRP | -0.294
RRIRRRPPRLPRPRPRPNRQPRP | -0.031
RRIRYRPPRLPRPRPRPTQPPRP | 0.409
RRIRNRPPRLPRPRPRPFYNPRP | -0.484
RRIRFRPPRLPRPRPRPYYMPRP | -0.505
RRIRTRPPRLPRPRPRPAIAPRP | 0.101
RRIRSRPPRLPRPRPRPNPAPRP | -0.0743
RRIRARPPRLPRPRPRPWNIPRP | -0.675
RRIRGRPPRLPRPRPRPDNHPRP | 0.125
RRIRFRPPRLPRPRPRPIKNPRP | -0.514
RRIRYRPPRLPRPRPRPPKEPRP | -0.00185
RRIRWRPPRLPRPRPRPGCCPRP | 0.659
RRIRERPPRLPRPRPRPSFCPRP | -0.593
